This is an account of results in patent US20240141372A1, “TRANSGENIC BANANA PLANTS HAVING INCREASED RESISTANCE TO FUSARIUM OXYSPORUM TROPICAL RACE 4 AND METHODS OF PRODUCING SAME” (Elo Life Systems, priority 2022, published 2024).

For assay [1], the system named is TR4 Fusarium oxysporum f sp. cubense (Foc). The assay is described as follows: ARSS greenhouse assay of acclimated tissue culture banana plants. The note with it: transgenic banana lines per payload, FIG. 15. The format is in vivo.
The next assay has as its system Foc_TR4. The assay is described as follows: In vitro spore germination and mycelial growth assay. Type of assay: cell-based, Fusarium oxysporum f.sp. cubense Tropical Race 4.
The mark [2] stands for this setting: Foc_TR4 spores, purified Pichia-secreted protein, low ionic strength media, 25° C., A595 at 48 hours, read-out: IC50 (μM, CE fraction).

Where two headings read alike, the source gives them in different places.

B1: Sm-AMP-D1: Sm-AMP-D1 anti-microbial peptide, tested as purified protein in vitro (protein)
chain: MAKTVLGIHVTFLTLLFAVILLNDVMYTPVEGKICERASGTWKGICIHSNDCNNQCVKWENAGSGSCHYQFPNYMCFCYFNC
Turning to B1, the disease necrosis in assay [1] is 27%. Also, in the assay with Foc_TR4 (Foc_TR4, in vitro fungal growth inhibition assay, read-out: IC50), the 50% inhibitory concentration (IC50) is 2.2 µM.

B2: Ma07_p17800.1: TLP antimicrobial protein, Musa acuminata (protein, listed as Musa acuminata)
chain: ATFDIVNQCSFTVWAAAVPGGGRQLDPSQTWSINVNPGTTGGRVWARTDCSFDGSGSGSCQTGDCGGLLECQGYGTPPNTLAEFALNQFQNMDFIDISLVDGFNVPMDFSPTSGDCRGIRCSADINGQCPAELRAPGGCNNPCTVFKTDEYCCTSGSCGPTNYSMFFKNNCPDAYSYPKDDATSTFTCPGGTNYRVVFCP
In the case of B2, in the assay on Foc_TR4 (setting [2]), the IC50 was over 25 µM.

B3: Ma06_p33150.1: TLP antimicrobial protein, Musa acuminata (protein, listed as Musa acuminata)
chain: TFEIVNRCSYTVWAAAVPGGGRQLNQGQSWTINVNAGTTGGRIWGRTGCSFDGSGRGRCQTGDCGGVLSCTAYGSPPNTLAEFALNQFNNLDFFDISLVDGFNVPMDFSPTSGGCRGIRCAADINGQCPGALKAPGGCNNPCTVFKTDQYCCNSGSCSPTDYSRFFKRNCPDAYSYPKDDQTSTFTCPGGTNYRVVFCP
With B3, the IC50 in the assay with Foc_TR4 (setting [2]) was determined as 0.029 ± 0.001 µM.

B4: Ma06_p33170.1: TLP antimicrobial protein, Musa acuminata (protein, listed as Musa acuminata)
chain: NFEIVNRCSYTVWAAAVPGGGRQLNQGQSWTINVKAGTTGGRIWGRTGCSFDGSGHGRCQTGDCGGLLACTAYGSPPNTLAEFALNQYSNQDYVDISLVDGFNVPMDFSPTSGGCRGMRCTADINKKCPTALKAPGGCNNPCTVFKTDQYCCNSGSCQPTEYSKFFKSNCPDAYSYPKDDPTSLVACPGGTNYRVVFCP
Regarding B4, the IC50 in the assay with Foc_TR4 (setting [2]) came out at 0.052 ± 0.002 µM.

B5: Ma02_p13180.1: TLP antimicrobial protein, Musa acuminata (protein, listed as Musa acuminata)
chain: ATFTLTNNCEYTVWPGVLSSAGTAPLSITGFALQQGESRSLDVPAAWSGRFWGRTLCAADASGKFSCGTGDCGSGAVECSGSGAAPPATLAEFTLDGSGGMDFYDVSLVDGYNLPMLVVPQGGSGGACSSTGCLVDLNGVCPSDLKVVLPTSEGGSESVACRSACETFGSPQYCCSGDYGNPNTCKPSSYSQFFKNACPRAYSYAYDDATSTFTCASANYLITFCPSTTSQKSSDSNPEAAGIPSSNNSTMIYSSEEVSHATPTVPRVAVALALAVVALCLGF
B5: the concentration for half-maximal inhibition (IC50) in the assay with Foc_TR4 (setting [2]) was over 30 µM.

B6: Ma09_p26730.1: TLP antimicrobial protein, Musa acuminata (protein, listed as Musa acuminata)
chain: ATFEIVNWCPFTVWAAAVPGGGRQLDRGQTWVLDVNPGTTGGRIWARTGCSFDGSGSGSCQTGDCGGVLACQGYGSPPNTLAEFALNQFDNLDFLDVSLVDGFNVPMEFSPITGNCSAIRCLADIKGQCPAELWTPGGCNNPCTVFKTDEYCCTSGSCGPTNYSNFFKSNCPDAYSYPKDDATSTFTCPGNGDYKVIFCPSDGYPTRFGRTAVRFVIPRA
B6: the concentration for half-maximal inhibition (IC50) in the assay with Foc_TR4 (setting [2]) was over 31 µM.

B7: Ma02_p17990.1: TLP antimicrobial protein, Musa acuminata (protein, listed as Musa acuminata)
chain: QYPAMTLTVVNNCPFTVWPAIQPNSGHDVLERGGFALPTVTHRSFPAPTQHWSGRIWARTGCTYANGRFSCATGDCGGRLECGGLGGAAPATLAQVTLHHGGQQDLSSYGVSLVDGFNVGMTVTPHEGKGRCPVVGCRENLLATCPDVLQLRAPAGGGQVVGCKSGCQAFGTDELCCRNMYNSPRTCRASSYSEFFKHACPATFTYAHDSPSLTHECAAPRELKVIFCH
Regarding B7, the 50% inhibitory concentration (IC50) in the assay with Foc_TR4 (setting [2]) is 0.64 µM.
